From US20120189666A1, “PHARMACEUTICAL FORMULATIONS CONTAINING MICROPARTICLES OR NANOPARTICLES OF A DELIVERY AGENT” (priority 2004, published 2012)
“And” between values parts separate entries of the source, which are not always exact repeats. Identical values can stand only once. Like-named read-outs stand apart in the source and are kept apart here.

Experiments:
[1] = Estimates of bioavailability (absolute, portal, relative to subcutaneous); details: rat model
From the text: (§1) This value was assumed to be constant in the estimates of absolute bioavailability.
(§2) The portal bioavailability provides an estimate of drug absorption from oral delivery. […] This value is used to estimate bioavailability relative to subcutaneous.

[2] = Insulin and 4-CNAB stability in simulated gastric fluid, HPLC; details: for Insulin % of theoretical: SGF
Protocol: The SGF was prepared with and without pepsin, a gastric enzyme. SGF pH 1.2 was prepared as per the USP NF 26 guidelines. 2 g sodium chloride and 3.2 g of pepsin were weighed and added to a suitable container, and deionized water was added to reach one liter in volume. If necessary, the pH was adjusted to 1.2 by addition of concentrated HCl or NaOH. A second SGF solution omitting the pepsin was also prepared.
Four 50 ml samples of SGF (two with pepsin and two without) were placed into a jacketed vessel connected to a circulating water bath set at 37° C. The solutions were stirred with magnetic stir bars for ten minutes to allow the solutions to reach 37° C. and reach thermal equilibrium.
The term “% of theoretical” as used herein, means the percent of the concentration (mg/mL) of withdrawn solution at the time-point the sample was taken as compared to the theoretical concentration (mg/mL) of the measuring component for experiment. The standard of deviation for the HPLC analysis is ±5%.

[3] = From the text: as §1, §2
[4] = Stability of insulin in simulated intestinal fluid, HPLC
Protocol: The SIF solutions were prepared with and without pancreatic enzyme. SIF pH 7.5 was prepared as per the USP NF 26 guidelines. SIF was prepared by addition of 6.8 g monobasic potassium phosphate and 10 g of pancreatin into a suitable vessel, and deionized water was added to reach a total volume of one liter. If necessary, the pH was adjusted to 7.5 by addition of 0.2 N sodium hydroxide. A second SIF solution omitting the pancreatin, an intestinal enzyme, was also prepared.
Four 50 ml samples of SIF (two with pancreatin and two without) were placed into a jacketed vessel connected to a circulating water bath set at 37° C. The solutions were stirred with magnetic stir bars for ten minutes to allow the solutions to reach 37° C. and reach thermal equilibrium.

[5] = Insulin from subcutaneous (SC) administration; details: insulin dose 0.05 mg/kg
From the text: as §1, §2

[6] = for AUC0->∞ / C0: individual animals
From the text: as §1

## Insulin: Recombinant human zinc insulin
[1]
  absolute bioavailability from SC: approximately 56%
[2]; SGF containing pepsin, first sampling point
  insulin degraded: 97%
[2]; SGF containing pepsin, first sampling point (0 minutes), 37° C.
  insulin remained: 3.0%
[2]; SGF without pepsin
  time insulin is stable: ≥ 2 h
[2]; insulin with 4-CNAB and enzymes (pepsin), 37° C., 0 minutes
  Insulin % of theoretical: 3.0%
[2]; insulin with 4-CNAB and no enzymes, 24 h
  Insulin % of theoretical: 0%
[2]; insulin without 4-CNAB and with enzymes (pepsin), 37° C., 0 minutes
  Insulin % of theoretical: 3.0%
[2]; insulin without 4-CNAB and without enzymes, 24 h
  Insulin % of theoretical: 0%
[3]; individual animals
  FPE (fH): 0.18
[3]; portal administration, n = 5
  AUC-IP, Average: 9.65
[3]; rat model, from intraportal administration
  maximum absolute bioavailability from oral delivery (100% GI absorption into the portal vein): approximately 60%
[3]; systemic administration, n = 5
  AUC-JV, Average: 15.53
[4]; SIF in presence of the enzyme (pancreatin)
  stability of insulin: degrades
[4]; SIF without pancreatin
  stability of insulin: stable
[4]; SIF, insulin with 4-CNAB and enzymes (pancreatin), 6 minutes
  Insulin % of theoretical: 5.4%
[5]; per study, 0.05 mg/kg
  Tmax: 30 min
[5]; time 0, study mean, 0.05 mg/kg
  Glucose: 83 mg/dL and 73 mg/dL and 60 mg/dL and 68 mg/dL and 65 mg/dL and 70 mg/dL
[5]; time 15, study mean, 0.05 mg/kg
  Glucose: 66 mg/dL and 42 mg/dL and 40 mg/dL and 45 mg/dL and 59 mg/dL
[5]; time 30, study mean, 0.05 mg/kg
  Glucose: 60 mg/dL and 59 mg/dL and 38 mg/dL and 39 mg/dL and 64 mg/dL
[5]; time 45, study mean, 0.05 mg/kg
  Glucose: 61 mg/dL and 64 mg/dL and 42 mg/dL and 36 mg/dL and 40 mg/dL and 69 mg/dL
[5]; time 180, study mean
  Insulin: 8.30 uU/ml
[6]; IV, all doses (2.5, 8, 9 μg/kg)
  C0->∞/Dose, Average: 0.0053 kg/mL
[6]; IV, dose 8 μg/kg
  AUC0->∞: 99.35 ng·min/mL and 99.32 ng·min/mL and 103.4 ng·min/mL
  C0: 50.67 ng/mL and 52.64 ng/mL and 49.63 ng/mL
[6]; IV, dose 8 μg/kg, n = 3
  AUC0->∞, X ± SD: 100.7 ± 2.4 ng·min/mL
  AUC0->∞/Dose, X ± SD: 0.0126 ± 0.0003 kg·min/mL
  Vd, X ± SD: 0.157 ± 0.005 L/kg
[6]; IV, dose 9 μg/kg
  AUC0->∞: 99.55 ng·min/mL and 75.67 ng·min/mL and 122.89 ng·min/mL
  C0: 46.79 ng/mL and 36.32 ng/mL and 55.30 ng/mL
[6]; IV, dose 9 μg/kg, n = 3
  AUC0->∞, X ± SD: 99.4 ± 23.6 ng·min/mL
  AUC0->∞/Dose, X ± SD: 0.0110 ± 0.0026 kg·min/mL
  C0, X ± SD: 46.1 ± 9.5 ng/mL
  Vd, X ± SD: 0.201 ± 0.043 L/kg
  kel, X ± SD: 0.47 ± 0.02 min⁻¹
[6]; IV, dose […], n = 5
  AUC0->∞/Dose, X ± SD: 0.0062 ± 0.0011 kg·min/mL
  Vd, X ± SD: 0.219 ± 0.068 L/kg
[6]; intravenous dosing
  average insulin AUC0→∞/Dose: 0.0093 kg·min/mL
